In article doi:10.1101/2020.09.01.277863:

Target: HalM2, class II lanthipeptide synthetase (wild type) (Bacillus halodurans)
Assay: native MS

- Kd: 2400 nM
- stoichiometry N: 1
Substance: HalA2 precursor peptide (full-length)
